Source: PMC3971960 (Biochemistry, 2014)

T1: BlaI (Staphylococcus aureus, UniProt P0A042 1-126)
T1 sequence: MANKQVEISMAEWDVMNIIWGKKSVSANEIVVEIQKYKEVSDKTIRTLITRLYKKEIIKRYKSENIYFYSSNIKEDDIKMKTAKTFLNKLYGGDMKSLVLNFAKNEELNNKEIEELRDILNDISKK

T2: MecI (Staphylococcus aureus NRS70 (N315), UniProt P68261 1-123)
T2 sequence: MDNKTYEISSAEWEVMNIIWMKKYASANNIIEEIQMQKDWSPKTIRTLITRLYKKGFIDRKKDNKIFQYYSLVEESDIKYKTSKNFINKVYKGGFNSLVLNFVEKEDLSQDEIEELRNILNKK


Legend:
AUC = molecular target: the molecule itself; assay: AUC
MALDI mass spectrometry = molecular target: the molecule itself; assay: MALDI mass spectrometry
BlaI = molecular target: T1, BlaI; assay: fluorescence anisotropy
MecI = molecular target: T2, MecI; assay: fluorescence anisotropy

Binder	Kd (AUC)	stoichiometry N (AUC)	stoichiometry N (MALDI mass spectrometry)	Kd (BlaI)	Kd (MecI)
MecI (natural protein, S. aureus NRS70 (N315), UniProt P68261 1-123, looked up) MDNKTYEISSAEWEVMNIIWMKKYASANNIIEEIQMQKDWSPKTIRTLITRLYKKGFIDRKKDNKIFQYYSLVEESDIKYKTSKNFINKVYKGGFNSLVLNFVEKEDLSQDEIEELRNILNKK	300 ± 30 nM	2	5	–	–
mec dsDNA (mec operator) (dsDNA) DNA 1: ATATAAGACTACATTTGTAGTATATTACAAATGTAGTATTT DNA 2: AAATACTACATTTGTAATATACTACAAATGTAGTCTTATAT	–	–	–	13 ± 6 nM	< 10 nM
